The series concerns the molecule itself. The series is described as follows: non-reducing SDS-PAGE with Western blot; purified GC1 or Trx1, untreated, reduced (10 mM DTT) or oxidized (100 μM diamide), excess reagent removed; 12% SDS-PAGE under non-reducing conditions, blots probed with anti-GC1 α and β or anti-Trx1. A general note: A western blot detects proteins with antibodies after separation by electrophoresis.

Consider 4 proteins from PMC10135718, “Inhibitory Peptide of Soluble Guanylyl Cyclase/Trx1 Interface Blunts the Dual Redox Signaling Functions of the Complex” (Antioxidants, 2023).

B1: oxidized GC1 (oGC1) (complex, human)
chain 1: MFCTKLKDLKITGECPFSLLAPGQVPNESSEEAAGSSESCKATVPICQDIPEKNIQESLPQRKTSRSRVYLHTLAESICKLIFPEFERLNVALQRTLAKHKIKESRKSLEREDFEKTIAEQAVAAGVPVEVIKESLGEEVFKICYEEDENILGVVGGTLKDFLNSFSTLLKQSSHCQEAGKRGRLEDASILCLDKEDDFLHVYYFFPKRTTSLILPGIIKAAAHVLYETEVEVSLMPPCFHNDCSEFVNQPYLLYSVHMKSTKPSLSPSKPQSSLVIPTSLFCKTFPFHFMFDKDMTILQFGNGIRRLMNRRDFQGKPNFEEYFEILTPKINQTFSGIMTMLNMQFVVRVRRWDNSVKKSSRVMDLKGQMIYIVESSAILFLGSPCVDRLEDFTGRGLYLSDIPIHNALRDVVLIGEQARAQDGLKKRLGKLKATLEQAHQALEEEKKKTVDLLCSIFPCEVAQQLWQGQVVQAKKFSNVTMLFSDIVGFTAICSQCSPLQVITMLNALYTRFDQQCGELDVYKVETIGDAYCVAGGLHKESDTHAVQIALMALKMMELSDEVMSPHGEPIKMRIGLHSGSVFAGVVGVKMPRYCLFGNNVTLANKFESCSVPRKINVSPTTYRLLKDCPGFVFTPRSREELPPNFPSEIPGICHFLDAYQQGTNSKPCFQKKDVEDGNANFLGKASGID
chain 2: MYGFVNHALELLVIRNYGPEVWEDIKKEAQLDEEGQFLVRIIYDDSKTYDLVAAASKVLNLNAGEILQMFGKMFFVFCQESGYDTILRVLGSNVREFLQNLDALHDHLATIYPGMRAPSFRCTDAEKGKGLILHYYSEREGLQDIVIGIIKTVAQQIHGTEIDMKVIQQRNEECDHTQFLIEEKESKEEDFYEDLDRFEENGTQESRISPYTFCKAFPFHIIFDRDLVVTQCGNAIYRVLPQLQPGNCSLLSVFSLVRPHIDISFHGILSHINTVFVLRSKEGLLDVEKLECEDELTGTEISCLRLKGQMIYLPEADSILFLCSPSVMNLDDLTRRGLYLSDIPLHDATRDLVLLGEQFREEYKLTQELEILTDRLQLTLRALEDEKKKTDTLLYSVLPPSVANELRHKRPVPAKRYDNVTILFSGIVGFNAFCSKHASGEGAMKIVNLLNDLYTRFDTLTDSRKNPFVYKVETVGDKYMTVSGLPEPCIHHARSICHLALDMMEIAGQVQVDGESVQITIGIHTGEVVTGVIGQRMPRYCLFGNTVNLTSRTETTGEKGKINVSEYTYRCLMSPENSDPQFHLEHRGPVSMKGKKEPMQVWFLSRKNTGTEETKQDDD
modifications: thiols oxidized with 100 μM diamide (cysteines not mapped) | thiols oxidized with 100 μM diamide (cysteines not mapped)
notes: alpha subunit of soluble guanylyl cyclase GC1, human; beta subunit of soluble guanylyl cyclase GC1, human; same protein as m1, oxidized; runs as high molecular weight multimers on a non-reducing gel; also called multimeric oxidized GC1; source: bought: Enzo life sciences (ALX-201-177-C010); treated with 100 μM diamide on ice for 30 min, excess removed
In the case of B1, the binding result is recorded as “binds”.

B2: purified recombinant human soluble guanylyl cyclase (GC1), untreated (complex)
chain 1: MFCTKLKDLKITGECPFSLLAPGQVPNESSEEAAGSSESCKATVPICQDIPEKNIQESLPQRKTSRSRVYLHTLAESICKLIFPEFERLNVALQRTLAKHKIKESRKSLEREDFEKTIAEQAVAAGVPVEVIKESLGEEVFKICYEEDENILGVVGGTLKDFLNSFSTLLKQSSHCQEAGKRGRLEDASILCLDKEDDFLHVYYFFPKRTTSLILPGIIKAAAHVLYETEVEVSLMPPCFHNDCSEFVNQPYLLYSVHMKSTKPSLSPSKPQSSLVIPTSLFCKTFPFHFMFDKDMTILQFGNGIRRLMNRRDFQGKPNFEEYFEILTPKINQTFSGIMTMLNMQFVVRVRRWDNSVKKSSRVMDLKGQMIYIVESSAILFLGSPCVDRLEDFTGRGLYLSDIPIHNALRDVVLIGEQARAQDGLKKRLGKLKATLEQAHQALEEEKKKTVDLLCSIFPCEVAQQLWQGQVVQAKKFSNVTMLFSDIVGFTAICSQCSPLQVITMLNALYTRFDQQCGELDVYKVETIGDAYCVAGGLHKESDTHAVQIALMALKMMELSDEVMSPHGEPIKMRIGLHSGSVFAGVVGVKMPRYCLFGNNVTLANKFESCSVPRKINVSPTTYRLLKDCPGFVFTPRSREELPPNFPSEIPGICHFLDAYQQGTNSKPCFQKKDVEDGNANFLGKASGID
chain 2: MYGFVNHALELLVIRNYGPEVWEDIKKEAQLDEEGQFLVRIIYDDSKTYDLVAAASKVLNLNAGEILQMFGKMFFVFCQESGYDTILRVLGSNVREFLQNLDALHDHLATIYPGMRAPSFRCTDAEKGKGLILHYYSEREGLQDIVIGIIKTVAQQIHGTEIDMKVIQQRNEECDHTQFLIEEKESKEEDFYEDLDRFEENGTQESRISPYTFCKAFPFHIIFDRDLVVTQCGNAIYRVLPQLQPGNCSLLSVFSLVRPHIDISFHGILSHINTVFVLRSKEGLLDVEKLECEDELTGTEISCLRLKGQMIYLPEADSILFLCSPSVMNLDDLTRRGLYLSDIPLHDATRDLVLLGEQFREEYKLTQELEILTDRLQLTLRALEDEKKKTDTLLYSVLPPSVANELRHKRPVPAKRYDNVTILFSGIVGFNAFCSKHASGEGAMKIVNLLNDLYTRFDTLTDSRKNPFVYKVETVGDKYMTVSGLPEPCIHHARSICHLALDMMEIAGQVQVDGESVQITIGIHTGEVVTGVIGQRMPRYCLFGNTVNLTSRTETTGEKGKINVSEYTYRCLMSPENSDPQFHLEHRGPVSMKGKKEPMQVWFLSRKNTGTEETKQDDD
notes: alpha subunit of soluble guanylyl cyclase GC1, human; beta subunit of soluble guanylyl cyclase GC1, human; alpha/beta heterodimer as bought; also called untreated GC1; source: bought: Enzo life sciences (ALX-201-177-C010), purified recombinant
For B2, the binding result was “binds”.

B3: oxidized Trx1 (oTrx1) (enzyme, human, UniProt P10599 1-105, looked up)
chain: MVKQIESKTAFQEALDAAGDKLVVVDFSATWCGPCKMIKPFFHSLSEKYSNVIFLEVDVDDCQDVASECEVKCMPTFQFFKKGQKVGEFSGANKEKLEATINELV
modifications: thiols oxidized with 100 μM diamide (the cysteine engaged in the homodimer is not identified)
notes: Thioredoxin 1, human; same protein as m2, oxidized; mostly a dimer on a non-reducing gel; also used here for the endogenous Trx1 of Jurkat T cells in two functional rows; also called oxidized thioredoxin; source: bought: Fitzgerald industries (30R-2985); treated with 100 μM diamide on ice for 30 min, excess removed
Take B3: the binding result is “binds”.

B4: recombinant human Thioredoxin 1 (Trx1), untreated (enzyme, UniProt P10599 1-105, looked up)
chain: MVKQIESKTAFQEALDAAGDKLVVVDFSATWCGPCKMIKPFFHSLSEKYSNVIFLEVDVDDCQDVASECEVKCMPTFQFFKKGQKVGEFSGANKEKLEATINELV
notes: Thioredoxin 1, human; also called untreated Trx1; source: bought: Fitzgerald industries (30R-2985)
Regarding B4, the binding result is “binds”.
